Among the data in paper PMC10156769, “The novel anti-cancer fluoropyrimidine NUC-3373 is a potent inhibitor of thymidylate synthase and an effective DNA-damaging agent” (Cancer Chemotherapy and Pharmacology, 2023) are Km values, retold here.

Substrate in the data set “purified protein”: O=c1ccn([C@H]2C[C@H](O)[C@@H](COP(=O)(O)OP(=O)(O)OP(=O)(O)O)O2)c(=O)[nH]1
The data set is described as follows: purified protein. To be noted: Mg2+ ([…] MgCl2 in the assay buffer).

Substrate in data set [1]: O=c1[nH]c(=O)n([C@H]2C[C@H](O)[C@@H](COP(=O)(O)OP(=O)(O)OP(=O)(O)O)O2)cc1F
The data set is described as follows: EnzChek pyrophosphate coupled assay, Michaelis-Menten substrate kinetics (KM). Type of data set: biochemical, Homo sapiens. To be noted: Mg2+ ([…] MgCl2 in the assay buffer).

B1: dUTPase (Deoxyuridine triphosphate nucleotidohydrolase) (Homo sapiens) (protein)
chain: ASTVGAAGWKGELPKAGGSPAPGPETPAISPSKRARPAEVGGMQLRFARLSEHATAPTRGSARAAGYDLYSAYDYTIPPMEKAVVKTDIQIALPSGCYGRVAPRSGLAAKHFIDVGAGVIDEDYRGNVGVVLFNFGKEKFEVKKGDRIAQLICERIFYPEIEEVQALDDTERGSGGFGSTGKN
For orientation: Km means the concentration of substrate that gives half-maximal velocity. On to B1, for which the Km in the data set “purified protein” turned out to be 3.2 ± 1.8 µM; in data set [1] it was 19.1 ± 6.7 µM.
